Laboratory results as given in the nanobody polyreactivity screen of Harvey et al. (2022).

Experiment: yeast display, Sf9 membrane polyspecificity reagent, FACS + sequencing; frameworks hold sequencing errors
Summary of the method: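 Synthetic nanobody libraries on Saccharomyces cerevisiae BJ5465 were galactose-induced for 36–48 hours, stained 1 hour at 4 °C with 10% biotinylated, detergent-solubilized Sf9 membrane reagent and enriched on streptavidin microbeads. FACS then separated cells into low and high (top ~1%) gates by anti-HA (expression) and streptavidin (reagent binding) fluorescence. Genes were colony-PCR amplified, MiSeq 2 × 250 sequenced and CDR-length filtered. A clone's polyreactivity label is that of its gate of origin.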

Sequence | polyreactivity (PSR sort gate)
QVQLVESGGGLVQAGGSLRLSCAASGRIFQQNGMGWYRQAPGKERELVAGINSGVGTNYADSVKGRFTISRDNAKNTVYLQRNSLKPEDTAVYYCAKSQPSYSGDRDYWGPGTQVTVSS | low polyreactivity
QVQLVESGGGLVQAGGSLRLSCAASGNTFGRYAMGWSRQAPGKEREFVAAIRWRGATTYYADSVKRRFTISRDNAKNPVDLQMNSMKPEDTAVYYCAAYYWGQGTGFDYWGQGTQVTVSS | high polyreactivity
QVQLVESGGGLVQAGGSLRLSFAASGLIFGYNAMGWYRQAPGTERELVAAISRRGTSTYYADSVKGRFTISRDNAKNTVYLQMNSLKPEDTAVYYCATYGVNPPGVEEYNYWGQGTQVTVSS | high polyreactivity
QVQLVESGGGLVQAGGSLRLSCAASGSTFAGNGMGWYRQAPGKERELVAGIDVTGGSSYYADSVKGRFTISRDNAKNTVYLQMNSLKPEDTAVYYCNTVWYRGGIDYYWGQGTQVTVSS | low polyreactivity
KVQLVESGGGLVQAGGSLRLSCAASGNPLLFNALGWYRQAPGKERELVARITSSGASTYYADSVKGRFTISRDNAKNTLYLQMNSLKAEDTAVYYCAARTRTRRGYTSGDYWGQGSQVTVSS | high polyreactivity
QVQIVESGGGLVQAGGSLRLSFAASGSILYINAMGWYRQAPGKERELVAAISWSGDSTNYADSVKGRFTISRDNAKNTVYLQMNSLKPEDTAVYYCNADCDVVGVAHDYWGQGTQVTVSS | low polyreactivity
QVQLVESGGGIFHAGGSLRLRCAASGSIYRGYAMVWYRQAPGKERELVASIRWRGGRTNYADSVKGRFTISRDNAKNTVYLQMNSLKPEDTAVYYCNADQQTIRSGKNDYWGQGTQVTVSS | low polyreactivity
QVQLVESGGGLVQAGGSLRLSCSASGRTFDVYAMGWYRQAPGKERELVATIRSDGSTTYADSVKGRFTISRDNAKNTVYLQMNSLKPEDTAVYFCAADFRSGFSSSTTPVQSDWGQGTQVTVSS | low polyreactivity
QVQLVESVVGLVQAGGSLRLSCAASGRTFRVNAMGWYRQAPGKERELVAAITWSGGTTYYADSVKGRFTISRDNAKNTVYLQMNSLKPEDTAVYYCAADRFWYGSWYDYWGHGTQVTVSS | high polyreactivity
QVQLVESGGGLVQAGGSLRLSCAASGFTFWSYGMGWYRQAPGKERELVAAISWSGGRTYYADSVKGRFTISRDNAKNTVYLQMNSLKPDDTAVYYCAAQPYYYFDEYTQYDYWGQGTQVTVSS | high polyreactivity
QVHLVESGGGLVQAGGSLRLSCAASGRTFYSYAMGWYRQAHGKERELVAAINTSGGRKHYADSVKGRFTISRDNAKNTVYLQMNSLKPEDTAVYYCAARYLGGRLSGDYSRYYWGQGTQVTVSS | high polyreactivity
QVQLVESGGGLVQAGGSLRLSCAASGRIFGQYAMGWYRQAPGKERELVAAISWRGGTTYYADSVKGRFTISRDNAKNTVYLQMNSLKPEDTAVYYCNADVWVYPYDYWGQGTQVTVSS | low polyreactivity
QVKLVESGGGLVQAGGSLRLSCAASGSIFNTYVMGWYRQAPGKERELVAAITSSGGRTYYADSVKGRFTISRDNAKNTVYLQMNSLKPEDTAVYYCNTAQRWVGRNDYWGQGTQVTVSS | high polyreactivity
QVQLVESGGGLVQAGGSLRLSCAASGSIIQGYVMGWYRQAPGKERELDAAISNSGSSTYYADSVKGRFTISRDNAKNTVYLQMNSLKPEDTAVYYCAVLRSYRGSKYGYWGQGTQVTVSS | high polyreactivity
QVQLVESGGGLVQAGGSLRLSCAASGGTFSFNAMGWYRQAPGKERELVAAITQTGDGTYYADSVKGRFTISRDNAKNTVYLQMNSLKPEDTAVYYCNTDSIPYVPWFRFDYWGQGTQVTVSS | low polyreactivity
QVQLVESGGGLVQAGGSLRLSCAASGFTFSYYAMGWYRQAPGKERELVAAIRGGGSTYADSVKGRFTISRDNAKNTVYLQMHSLKPEDTAVYYCAARYSGSPYPTRRYDYWGQGTQVTVSS | high polyreactivity
QVQLVESGGGLVQAGGSLRLSCAASGYIFKSYVMGWNRQEPGKESELVAAITWSGGSTYYADSVKGRFTISRDNAKNTVYLQMNSLKPEDTAVYYCAAYRRRYRTTYDYWGQGTQVTVSS | high polyreactivity
QVQLVESGGGLVQAGGSLRLSCAASGRIFDVNAMGWYRQAPGKERELVAAITYSDGSTYYADSVTGRFTISRDNAKNTVYLQMNSLKPEDTAVDYCAATQEPVTPQPYGYWGQGTQVTVSS | low polyreactivity
QVQLVESGGGLVQAGGSLRLSCAASGITFGQNAMGWYRQAPGKEREYVATITASGSTYYADSVKGRFTISRDNAKNTVYLQMNSLKPEDTAVYYCATRYAGEYYWDYDYWGQGTQVTVSS | high polyreactivity
QVQLVESGGGLVQAGGSLRLSCAASGFIFGNYAMGWYRQAPGKERELVATITRRGGRTYYADSVKGRFTISRDIAKNTVYLQMTSLKPEDTAVYYCNARPSRWAREGYWGQGTQVTVSS | high polyreactivity
QVQLVESGGGLVQAGGSLRLSCAASGRIFYYNAMGWYRPAPGKERELVAAITGDGTTDYADSVKGRFTISRDNAKNTVYLQMNSLKPEDTAVYYCNAPFRYVPPEGSGPYDYWGQGTQVTVSS | low polyreactivity
QVQLVESGGGLVQAGGSLRLSCAASGRTFYRYAMGWYRQAPGKERELVATINWTSGSTNYADSVKGRFTISRDNAKNTVYLQMNSLKPEDTAVYYCAARGPVGYGWRYRPWHDYWGQGTQVTVSS | high polyreactivity

Sequence | polyreactivity (PSR sort gate)
QVQLVESGGGLVQAGGSLRLSCAASGLIFYRYAMGWYRQAPAKERELVADITRDSGSTSYADSVKGRFTISRDYAKNTVYLQMNSLKPEDTAVYYCNAGWVYTASGRQYYITYDYWGQGTQVTVSS | high polyreactivity
QVQLVESGVGLVQAGGSLRLSCAASGRIFGFYAMGWYRQAPGKESELVAAITVSGSSTRYADSVKGRFTISRDIAKNTFYLQMNSLKPEDTGVYYCAAFNRCSGGFDYWGQGTQVTVSS | high polyreactivity
QVQLVESGGGLVQAGGSLRLSCAASGFTFDQYTMGWYRQAPGKERELVAAISSSGGSTYYADSVKGRFTISRDNAKNTVYLQMNSLKPEDTAVFYCAARFLLTQRFSHDYWGQGTQVTVSS | low polyreactivity
QVQLVESGGGLVQAGGSVRLSFAASGSSIFGNFMGWYRQAPGKERELVAGITNRGGSTYFADSVKGRFTISRDNAKITVYLQMNSLKPEDTAVYYCAARKNHSGYGRGNYWGQGTQVTVSS | high polyreactivity
QFQLVESGGGLVQAGGSLRLSCASSGSIIGIYAMGWYRQAPGKERELVAAISWSGGSTYYADSVKGRFTISRDNAKNTVYLQMNSLKPEDTAVYYCAARGHYQYYWGQGTQVTVSS | high polyreactivity
QVQHVESGGGLVQAGGSLRLSCAASGIIFGHYDMGWYRQAPGKERELVAAITFTGDSTYYADSVKGRFTISRDNAKITVYLQMNSLKPEDTAVYFCAADTPVPWGSWGYDYWGQGTQVTVSS | low polyreactivity
QVQLVESGGGLVQAGGSLRLSCSASGITFIYYMGWYIQAPGKERELVAAITWSGGSTYYADSVKGRFTISRDNAKNTVYLQMNSLKPEDTAVYYCAAVRRAEEYDYCGQGTQVTVSS | low polyreactivity
QVQLVESGGGLVQAGGSLRLSCAASGSIFDRNAMGWYRQAPGKERELVATITWSGVSTYYADSVKGRFTISRDNAKNTVYLQMKSLKPEDTAVYYCYADYSYRHWYDPGQYGQAMGYWGQGTKVTVSS | low polyreactivity
QVQLVESGGGLVQAGGSLRLSCAASGRIFPRYAMGWYRQAPGKERELVARITRRGGITYYADSVKGRFTISRDNAKNSVYLQMNSLKPEDTAVYYCNVDYYRGGDFSYGYDYWGQGTQVTVSS | high polyreactivity
QVQLVESGGGLVQAGGSLRLSCAASGFIFARNAMGWYRQAPGKERELVARITKRGGSTFYADSVKGRFTISRDNAKNTVYLQMNSLKPEDPAVYYCNADGYHGHVEGDYWGQGTQVTVSS | high polyreactivity
QVQLVESGGGLVQAGGSLRLICAASGSTFNDYVMGWYRQAPGKERELVAAISRSGGSTYYADSVKGRITISRDNAKNTVYLQMNSLKPEDTAVYYCAAASPGPWRYDYWGQGTQVTVSS | high polyreactivity
QVQLVESGGGIVQAGGSLRLSCAASGSTIDKNAMGWYRQAPGKERELVAAINNGGGTTYYADSVKGRFTISRDNAKNTVFLQMNSLKPEDTAVYYCAAVGKAYWSDYQYRYYYWGQGTQVTVSS | low polyreactivity
QVQLVESGGGLVQAGGSLRLSCAASGFTFRWYTMGWYRQAPGKERELVAAISWSGTSTYYADSVKGRFTISRDNAKNTVYLQMNSLKPEDTAVYYCAAADFYYTGADDYWGQGTQVTVSS | high polyreactivity
QVQLVESGGGLVQAGGSLRLSCAASGSIFQVYAMGWYSQAPGKERELVAAITKSGVSTYYADSVKGRFTISRDNAKNTVYLQMNSLKPEDTAVYYCAAPRYVRYHRGYGFDYWGQGTQVTVSS | low polyreactivity
QVQLVESGGGLVQAGGSLRLSCAASGLIFVGYAMGWYRQAPGKERELVAAITSGGSTKYADSVKGRFTISRDNAKNTVYLQMNSLKPEDTAVYYCAASGWRNWWSARNYYWGQGTQVTVSS | low polyreactivity
QVQLVESGGGLVQAGGSLRLSCAASGSTFGVNAMGWYRQAPGKERELVAAISSSGSSTYADSVKGRFTISRDYAKNTVYLQMNSLKPEYTGVYYCNKTTLLTVEYDYWGQGPQVTVSS | low polyreactivity
QVQLVESGGGLVQAGGSLRLSCAASGSIFAKYAMGWYRQAPGKERELVAAITGSGGSTYYADSVKGRFTISRDNAKNTVYLQMNSVKPEDTAVYYCAKRRPRYTYNYWGQGTQVTVSS | high polyreactivity
QVQLVESGGGLVQAGGSLRLSCAASGFTFLRYAMGWYRQAPGKESELVAAISTSGGSTSYADSVKGRFTISRDNAKNTVYLQMNSLKPEDTAVYYCNAVLYKVSISEYDYWGQGTQVTVSS | high polyreactivity
QVQLVESGGGLVQAGGSLRLSCAASGSTFFGNTMGWYRKAPGKERELVATITRRGGSTYYADSVKGRFTISRDNAKNTVYLQMNSLKPEDTAVYYCAKRGPYTKYDYWGQGTQVTVSS | low polyreactivity
QVQLVESGGGLVQAGGSLRLSCAASGRTFQYNAMGWYRQAPGKERELVAAISSSGGSTYYADSVKGRFTISRDNAKNTVYLQMNSLKPEDTAVYYCNAYSQSWNFYGDGDYWGQGSQVTVSS | low polyreactivity
QVQLVESGGGLVQAGFSLRLSCAASGSTFQSYTMGRSRQAPGKERELVAAISSSGGRTYYADSVKGRYTISRDYAKNTVYLQMNSLNPEDTAVYYCAAVSKSWRGATWYDYWGQGTQVTVSS | high polyreactivity
